Test results reported in patent US20140162945A1 (BEIJING HANMI PHARMACEUTICAL, published 2014).
Bridges are numbered along the chain shown (N, C = ends). Where no end group is shown, it is not given here. [ ]: non-standard residue; d: D form. The star is where a group is joined. Palmitoyl = CCCCCCCCCCCCCCCC(=O)*; Aib = CC(C)(N)C(=O)O

B1: Analog 053-2 (peptide)
peptide: Y[Aib]EGTFTSDYSIYMEKEAVEEFIAWLVKG-NH2
modifications: lactam 16-20; N-terminus assumed
SMILES: CC[C@H](C)[C@H](NC(=O)[C@H](Cc1ccccc1)NC(=O)[C@H](CCC(=O)O)NC(=O)[C@@H]1CCC(=O)NCCCC[C@H](NC(=O)[C@H](CCC(=O)O)NC(=O)[C@H](CCSC)NC(=O)[C@H](Cc2ccc(O)cc2)NC(=O)[C@@H](NC(=O)[C@H](CO)NC(=O)[C@H](Cc2ccc(O)cc2)NC(=O)[C@H](CC(=O)O)NC(=O)[C@H](CO)NC(=O)[C@@H](NC(=O)[C@H](Cc2ccccc2)NC(=O)[C@@H](NC(=O)CNC(=O)[C@H](CCC(=O)O)NC(=O)C(C)(C)NC(=O)[C@@H](N)Cc2ccc(O)cc2)[C@@H](C)O)[C@@H](C)O)[C@@H](C)CC)C(=O)N[C@@H](CCC(=O)O)C(=O)N[C@@H](C)C(=O)N[C@@H](C(C)C)C(=O)N1)C(=O)N[C@@H](C)C(=O)N[C@@H](Cc1c[nH]c2ccccc12)C(=O)N[C@@H](CC(C)C)C(=O)N[C@H](C(=O)N[C@@H](CCCCN)C(=O)NCC(N)=O)C(C)C
B2: Analog 060 (peptide)
peptide: Y[Aib]EGTFTSDYSIYMEKEAVREFIAWLVKGKKKKK-NH2
modifications: N-terminus assumed
SMILES: CC[C@H](C)[C@H](NC(=O)[C@H](Cc1ccccc1)NC(=O)[C@H](CCC(=O)O)NC(=O)[C@H](CCCNC(=N)N)NC(=O)[C@@H](NC(=O)[C@H](C)NC(=O)[C@H](CCC(=O)O)NC(=O)[C@H](CCCCN)NC(=O)[C@H](CCC(=O)O)NC(=O)[C@H](CCSC)NC(=O)[C@H](Cc1ccc(O)cc1)NC(=O)[C@@H](NC(=O)[C@H](CO)NC(=O)[C@H](Cc1ccc(O)cc1)NC(=O)[C@H](CC(=O)O)NC(=O)[C@H](CO)NC(=O)[C@@H](NC(=O)[C@H](Cc1ccccc1)NC(=O)[C@@H](NC(=O)CNC(=O)[C@H](CCC(=O)O)NC(=O)C(C)(C)NC(=O)[C@@H](N)Cc1ccc(O)cc1)[C@@H](C)O)[C@@H](C)O)[C@@H](C)CC)C(C)C)C(=O)N[C@@H](C)C(=O)N[C@@H](Cc1c[nH]c2ccccc12)C(=O)N[C@@H](CC(C)C)C(=O)N[C@H](C(=O)N[C@@H](CCCCN)C(=O)NCC(=O)N[C@@H](CCCCN)C(=O)N[C@@H](CCCCN)C(=O)N[C@@H](CCCCN)C(=O)N[C@@H](CCCCN)C(=O)N[C@@H](CCCCN)C(N)=O)C(C)C
B3: Analog 066 (peptide)
peptide: Y[Aib]EGTFTSDYSIYMEKEAVREFIAWLVKGGPSSGAPPPSK-NH2
modifications: N-terminus assumed
SMILES: CC[C@H](C)[C@H](NC(=O)[C@H](Cc1ccccc1)NC(=O)[C@H](CCC(=O)O)NC(=O)[C@H](CCCNC(=N)N)NC(=O)[C@@H](NC(=O)[C@H](C)NC(=O)[C@H](CCC(=O)O)NC(=O)[C@H](CCCCN)NC(=O)[C@H](CCC(=O)O)NC(=O)[C@H](CCSC)NC(=O)[C@H](Cc1ccc(O)cc1)NC(=O)[C@@H](NC(=O)[C@H](CO)NC(=O)[C@H](Cc1ccc(O)cc1)NC(=O)[C@H](CC(=O)O)NC(=O)[C@H](CO)NC(=O)[C@@H](NC(=O)[C@H](Cc1ccccc1)NC(=O)[C@@H](NC(=O)CNC(=O)[C@H](CCC(=O)O)NC(=O)C(C)(C)NC(=O)[C@@H](N)Cc1ccc(O)cc1)[C@@H](C)O)[C@@H](C)O)[C@@H](C)CC)C(C)C)C(=O)N[C@@H](C)C(=O)N[C@@H](Cc1c[nH]c2ccccc12)C(=O)N[C@@H](CC(C)C)C(=O)N[C@H](C(=O)N[C@@H](CCCCN)C(=O)NCC(=O)NCC(=O)N1CCC[C@H]1C(=O)N[C@@H](CO)C(=O)N[C@@H](CO)C(=O)NCC(=O)N[C@@H](C)C(=O)N1CCC[C@H]1C(=O)N1CCC[C@H]1C(=O)N1CCC[C@H]1C(=O)N[C@@H](CO)C(=O)N[C@@H](CCCCN)C(N)=O)C(C)C
B4: Analog 053-1 (peptide)
peptide: Y[Aib]EGTFTSDYSIYMEKEAVEEFIAWLVKG-NH2
modifications: N-terminus assumed
SMILES: CC[C@H](C)[C@H](NC(=O)[C@H](Cc1ccccc1)NC(=O)[C@H](CCC(=O)O)NC(=O)[C@H](CCC(=O)O)NC(=O)[C@@H](NC(=O)[C@H](C)NC(=O)[C@H](CCC(=O)O)NC(=O)[C@H](CCCCN)NC(=O)[C@H](CCC(=O)O)NC(=O)[C@H](CCSC)NC(=O)[C@H](Cc1ccc(O)cc1)NC(=O)[C@@H](NC(=O)[C@H](CO)NC(=O)[C@H](Cc1ccc(O)cc1)NC(=O)[C@H](CC(=O)O)NC(=O)[C@H](CO)NC(=O)[C@@H](NC(=O)[C@H](Cc1ccccc1)NC(=O)[C@@H](NC(=O)CNC(=O)[C@H](CCC(=O)O)NC(=O)C(C)(C)NC(=O)[C@@H](N)Cc1ccc(O)cc1)[C@@H](C)O)[C@@H](C)O)[C@@H](C)CC)C(C)C)C(=O)N[C@@H](C)C(=O)N[C@@H](Cc1c[nH]c2ccccc12)C(=O)N[C@@H](CC(C)C)C(=O)N[C@H](C(=O)N[C@@H](CCCCN)C(=O)NCC(N)=O)C(C)C
B5: Analog 052-2 (peptide)
peptide: Y[Aib]EGTFTSDYSEYMEKEAVREFIAWLVKG-NH2
modifications: lactam 12-16; N-terminus assumed
SMILES: CC[C@H](C)[C@H](NC(=O)[C@H](Cc1ccccc1)NC(=O)[C@H](CCC(=O)O)NC(=O)[C@H](CCCNC(=N)N)NC(=O)[C@@H](NC(=O)[C@H](C)NC(=O)[C@H](CCC(=O)O)NC(=O)[C@@H]1CCCCNC(=O)CC[C@H](NC(=O)[C@H](CO)NC(=O)[C@H](Cc2ccc(O)cc2)NC(=O)[C@H](CC(=O)O)NC(=O)[C@H](CO)NC(=O)[C@@H](NC(=O)[C@H](Cc2ccccc2)NC(=O)[C@@H](NC(=O)CNC(=O)[C@H](CCC(=O)O)NC(=O)C(C)(C)NC(=O)[C@@H](N)Cc2ccc(O)cc2)[C@@H](C)O)[C@@H](C)O)C(=O)N[C@@H](Cc2ccc(O)cc2)C(=O)N[C@@H](CCSC)C(=O)N[C@@H](CCC(=O)O)C(=O)N1)C(C)C)C(=O)N[C@@H](C)C(=O)N[C@@H](Cc1c[nH]c2ccccc12)C(=O)N[C@@H](CC(C)C)C(=O)N[C@H](C(=O)N[C@@H](CCCCN)C(=O)NCC(N)=O)C(C)C
B6: Analog 052-1 (peptide)
peptide: Y[Aib]EGTFTSDYSEYMEKEAVREFIAWLVKG-NH2
modifications: N-terminus assumed
SMILES: CC[C@H](C)[C@H](NC(=O)[C@H](Cc1ccccc1)NC(=O)[C@H](CCC(=O)O)NC(=O)[C@H](CCCNC(=N)N)NC(=O)[C@@H](NC(=O)[C@H](C)NC(=O)[C@H](CCC(=O)O)NC(=O)[C@H](CCCCN)NC(=O)[C@H](CCC(=O)O)NC(=O)[C@H](CCSC)NC(=O)[C@H](Cc1ccc(O)cc1)NC(=O)[C@H](CCC(=O)O)NC(=O)[C@H](CO)NC(=O)[C@H](Cc1ccc(O)cc1)NC(=O)[C@H](CC(=O)O)NC(=O)[C@H](CO)NC(=O)[C@@H](NC(=O)[C@H](Cc1ccccc1)NC(=O)[C@@H](NC(=O)CNC(=O)[C@H](CCC(=O)O)NC(=O)C(C)(C)NC(=O)[C@@H](N)Cc1ccc(O)cc1)[C@@H](C)O)[C@@H](C)O)C(C)C)C(=O)N[C@@H](C)C(=O)N[C@@H](Cc1c[nH]c2ccccc12)C(=O)N[C@@H](CC(C)C)C(=O)N[C@H](C(=O)N[C@@H](CCCCN)C(=O)NCC(N)=O)C(C)C
B7: Analog 057 (peptide)
peptide: Y[Aib]EGTFTSDYSIYMEKEAVKEFIAWLVKG-NH2
modifications: N-terminus assumed
SMILES: CC[C@H](C)[C@H](NC(=O)[C@H](Cc1ccccc1)NC(=O)[C@H](CCC(=O)O)NC(=O)[C@H](CCCCN)NC(=O)[C@@H](NC(=O)[C@H](C)NC(=O)[C@H](CCC(=O)O)NC(=O)[C@H](CCCCN)NC(=O)[C@H](CCC(=O)O)NC(=O)[C@H](CCSC)NC(=O)[C@H](Cc1ccc(O)cc1)NC(=O)[C@@H](NC(=O)[C@H](CO)NC(=O)[C@H](Cc1ccc(O)cc1)NC(=O)[C@H](CC(=O)O)NC(=O)[C@H](CO)NC(=O)[C@@H](NC(=O)[C@H](Cc1ccccc1)NC(=O)[C@@H](NC(=O)CNC(=O)[C@H](CCC(=O)O)NC(=O)C(C)(C)NC(=O)[C@@H](N)Cc1ccc(O)cc1)[C@@H](C)O)[C@@H](C)O)[C@@H](C)CC)C(C)C)C(=O)N[C@@H](C)C(=O)N[C@@H](Cc1c[nH]c2ccccc12)C(=O)N[C@@H](CC(C)C)C(=O)N[C@H](C(=O)N[C@@H](CCCCN)C(=O)NCC(N)=O)C(C)C

Assays:
human GLP-1 receptor = human GLP-1 receptor (human, UniProt P43220 24-463); assay: cell-based or functional assay
Chain of human GLP-1 receptor (P43220 24-463): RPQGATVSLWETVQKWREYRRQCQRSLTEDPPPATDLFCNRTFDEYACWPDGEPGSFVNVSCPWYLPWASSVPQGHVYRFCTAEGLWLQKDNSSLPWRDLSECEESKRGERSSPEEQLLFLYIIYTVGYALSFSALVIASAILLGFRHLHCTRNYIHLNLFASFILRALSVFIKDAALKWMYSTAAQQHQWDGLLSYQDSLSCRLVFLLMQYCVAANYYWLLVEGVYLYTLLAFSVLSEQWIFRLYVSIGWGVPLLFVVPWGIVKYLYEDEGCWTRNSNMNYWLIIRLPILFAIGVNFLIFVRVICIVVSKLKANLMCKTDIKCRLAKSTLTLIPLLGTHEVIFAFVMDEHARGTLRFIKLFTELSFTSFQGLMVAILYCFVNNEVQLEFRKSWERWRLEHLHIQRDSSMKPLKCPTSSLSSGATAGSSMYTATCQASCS

human GIP receptor = target: T1, human GIP receptor (human, UniProt P48546 22-466); assay: cell-based or functional assay
T1 sequence (looked up): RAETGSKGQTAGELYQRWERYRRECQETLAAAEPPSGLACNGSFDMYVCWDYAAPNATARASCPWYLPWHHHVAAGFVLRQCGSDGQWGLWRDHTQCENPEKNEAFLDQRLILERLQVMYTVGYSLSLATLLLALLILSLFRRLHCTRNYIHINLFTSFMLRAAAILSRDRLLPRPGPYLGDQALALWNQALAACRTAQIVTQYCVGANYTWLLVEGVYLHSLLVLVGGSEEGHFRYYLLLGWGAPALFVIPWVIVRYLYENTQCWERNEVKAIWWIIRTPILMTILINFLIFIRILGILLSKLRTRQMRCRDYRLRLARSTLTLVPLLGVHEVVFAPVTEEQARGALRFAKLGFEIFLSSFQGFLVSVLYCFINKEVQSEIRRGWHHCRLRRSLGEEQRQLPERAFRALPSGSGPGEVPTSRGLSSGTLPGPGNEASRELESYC

Binder | EC50, GLP-1 Receptor cAMP induction (human GLP-1 receptor) [nM] | Relative Potency, GLP-1 Receptor (human GLP-1 receptor) [%] | EC50, GIP Receptor cAMP induction (human GIP receptor) [nM] | Relative Potency, GIP Receptor (human GIP receptor) [%]
Y[Aib]EGTFTSDYSIYMEKEAVREFIAWLVK(Palmitoyl)G-NH2 [Analog 046] | 6.52 |  |  | 
B1 | 2.96 | 37 | 0.48 | 35.4
B2 | 2.97 | 36.8 | 2.5 | 8.4
B3 | 2.5 | 43.7 | 0.34 | 50
B4 | 12.7 |  | 0.5 | 34
B5 | 0.824 | 133 | 0.064 | 147
B6 | 2.5 |  | 0.57 | 36.8
B7 | 4.23 |  | 0.57 | 36.8
